No end group written: not given here.
Experiments:
[1] = biological target: T1, 37 kDa/67 kDa LRP/LR on murine neuroblastoma cells (N2a) (murine, UniProt P14206 2-295); test: FACS on N2a cells
T1 construct: whole, on cells; also called LRP/LR on the surface of N2a cells

[2] = biological target: T2, recombinant human LRP::FLAG expressed in BHK cells transfected with SFV1-huLRP-FLAG (human, UniProt P08865 2-295); test: Western Blot of total extracts of transfected BHK cells
T2 construct: whole, on cells; also called human 37 kDa LRP::FLAG; rec; LRP::FLAG
Experimental: (§1) BHK cells were either not transfected (n.t.) or transfected in the manner known to the person skilled in the art in the specialty with the rec. Semliki forest virus (SFV) RNAs SFV1-huLRP-FLAG or SFV1-mol.RP::FLAG. The method of preparation of rec. SFV RNA, the transfection and the analysis by Western Blotting or immunofluorescence (FIG. 12) or FACS (FIG. 13) have already been described (Gauczynski et al., 2002; Gauczynski et al., 2001b). 24 h post-transfection, total cell extracts were analyzed by Western Blotting. […] The control used was the anti-LRP antibody mLRP43512 (A), and an anti-mouse IgG-HRP-coupled secondary antibody. As a loading control, the β-actin level was determined. To this end, an anti-β-actin antibody (Chemicon) was employed. Detection was carried out by chemiluminescence (Western Lightning, NEN). […] LRP::FLAG.

[3] = biological target: T3, recombinant murine LRP::FLAG expressed in BHK cells transfected with SFV1-moLRP::FLAG (murine, UniProt P14206 2-295); test: as above
T3 construct: whole, on cells; also called muLRP-FLAG; murine 37 kDa LRP::FLAG
Experimental: as §1

[4] = biological target: T4, LRP peptide EKAVTKEEFQGEWTA (also: synthesized on a cellulose membrane); test: peptide array on cellulose membrane, scFv 1:5000
T4 peptide: EKAVTKEEFQGEWTA
Experimental: (§2) The N-terminus of each peptide was displaced by 3 amino acids in relation to the previous peptide, so that each peptide overlapped with the previous peptide by 12 amino acids. The synthesis of the peptides was carried out on a cellulose membrane.

[5] = biological target: T5, LRP peptide VTKEEFQGEWTAPAP (also: synthesized on a cellulose membrane); test: peptide array on cellulose membrane, scFv 1:5000
T5 peptide: VTKEEFQGEWTAPAP
Experimental: as §2

[6] = biological target: T6, LRP peptide TEDWSAAPTAQATEW (synthesized on a cellulose membrane); test: peptide array on cellulose membrane, scFv 1:5000
T6 peptide: TEDWSAAPTAQATEW
Experimental: as §2

[7] = biological target: T7, LRP peptide PSVPIQQFPTEDWSA (synthesized on a cellulose membrane); test: peptide array on cellulose membrane, scFv 1:5000
T7 peptide: PSVPIQQFPTEDWSA
Experimental: as §2

Measured: binding result

B1: single chain antibody S18 selected from the synthetic scFv bank (scFv)
scFv: QVQLQESGGGLVQPGGSLRLSCAASGFMFSRYAMSWVRQAPGKGPEWVSGISGSGGSTYYADSVKGRFTVSRDNSKNTLYLQMNSLRAEDTAVYYCARHPGFWHFDYWGQGTLVTVSSGSASAPKLEEGEFSEARVSELTQDPAVSVALGQTVRITCQGDSLRNFYASWYQQKPGQAPTLVIYGLSKRPSGIPDRFSASSSGNTASLTITGAQAEDEADYYCNSRDRSGNHVNVLFGGGTKLTVLRQPKAAPSVTLFPPSSAAAGSHHHHHH
notes: VH and VL joined by a peptide linker (YOL), with a C-terminal histidine tag; also called scFv S18; scFvS18
not listed: [6] | [7]
binds: all other assays above

B2: single chain antibody N3 selected from the naive scFv bank (scFv)
scFv: EVQLVESGGGVVQPGRSLRLSCAASGFTFSSYGMHWVRQAPGKGLEWVAVIWYDGSNKYYADSVKGRFTISRDNSKNTLYLQMNSLRAEDTAVYYCATIPRSSFYYGMDVWGQGTTVTVSSGSASAPTLKLEEGEFSEARVQPVLTQPPSASGTPGQRVTISCSGSRSNIGSNTVNWYQQLPGTAPKLLIYGNNQRPSGVPERFSGSKSGTSASLAISGLQSEDEADYYCAAWDDSLTGVLFGGGTKLTVLGQPKAAPSVTLFPPSSAAAGSHHHHHH
notes: VH and VL joined by a peptide linker (YOL), with a C-terminal histidine tag; also called scFv N3; scFvN3
not listed: [4] | [5]
binds: all other assays above
